System: T1, O=[N+]([O-])c1ccc(O[C@@H]2OC[C@@H](O[C@@H]3OC[C@@H](O)[C@H](O)[C@H]3O)[C@H](O)[C@H]2O)cc1
T1 construct: mature form Leu20-Ser216 (197 residues), signal peptide removed, N-terminal His6 tag (pRham N-His), E. coli 10G, synthetic codon-optimised gene, monomer, 22,340 Da
Assay: purified protein
Assay type: biochemical, Rhizopus arrhizus
Conditions: 20 mM sodium acetate, pH 5.0, 37 °C, free enzyme without OsXIP

Chain of RXyn2 (Rhizopus arrhizus) (chain, as listed by the source): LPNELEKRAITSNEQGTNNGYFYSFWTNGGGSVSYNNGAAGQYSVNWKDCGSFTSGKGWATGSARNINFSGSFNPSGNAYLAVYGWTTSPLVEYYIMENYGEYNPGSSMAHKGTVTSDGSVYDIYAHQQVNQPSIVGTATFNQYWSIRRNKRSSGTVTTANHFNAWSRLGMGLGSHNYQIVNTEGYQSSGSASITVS

RXyn2 (Rhizopus arrhizus) showed a Km of 5.05 ± 0.29 mM.

— PMC12329526, “Molecular arrangements that accompany binding of rice xylanase inhibitor protein OsXIP and the Rhizopus oryzae GH11 xylanase RXyn2” (The Journal of Biological Chemistry, 2025)
